Results from patent US20060177441A1 (Genentech, published 2006).
Values belong to the binder of their own block, whether it stands above or below them.

Experiments:
[1] = target: T1, c-mpl (thrombopoietin receptor) on HU-03 cells, human platelets or human cord blood cells (human, UniProt P40238 26-635); assay: Hu3 Binding: competition with 125I-TPO (100 pM) on HU-03 cells
T1 construct: whole, on cells; also called mpl receptor; TPO receptor
T1 sequence (looked up): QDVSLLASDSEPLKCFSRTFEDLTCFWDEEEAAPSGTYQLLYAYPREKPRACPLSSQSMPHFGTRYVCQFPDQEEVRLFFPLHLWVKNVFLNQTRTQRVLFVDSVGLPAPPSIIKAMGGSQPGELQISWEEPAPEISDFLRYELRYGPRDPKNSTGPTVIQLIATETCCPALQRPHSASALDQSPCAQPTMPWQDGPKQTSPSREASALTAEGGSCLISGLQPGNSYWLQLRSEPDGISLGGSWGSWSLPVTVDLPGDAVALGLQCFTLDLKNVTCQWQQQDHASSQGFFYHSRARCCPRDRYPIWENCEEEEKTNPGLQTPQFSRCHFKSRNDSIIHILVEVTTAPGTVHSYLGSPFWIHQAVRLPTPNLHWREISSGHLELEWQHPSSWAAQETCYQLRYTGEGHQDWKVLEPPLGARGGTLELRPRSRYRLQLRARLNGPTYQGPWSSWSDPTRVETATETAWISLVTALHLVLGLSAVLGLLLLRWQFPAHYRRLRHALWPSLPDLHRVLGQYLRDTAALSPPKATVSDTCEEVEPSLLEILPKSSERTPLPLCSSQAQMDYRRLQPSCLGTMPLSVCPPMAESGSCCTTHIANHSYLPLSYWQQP
Experimental: (§1) HU-03 cells were agitated during the incubation period to keep them in suspension. The reaction mixture was overlayed on 1 ml 20% sucrose-HBSSB and microcentrifuged at 13,500 rpm for five minutes. The supernatants were aspirated, tube bottoms containing the cell pellets were cut off, and cell- or platelet-associated radioactivity was measured with an Iso Data Model 120 gamma counter.

mpl-Ig = target: T2, mpl-Ig (UniProt P40238 26-491); assay: Mpl/TPO ELISA: inhibition of biotinylated TPO binding to captured mpl-Ig
T2 construct: Used as conditioned medium of mpl-Ig-transfected 293 cells, captured on anti-human IgG Fc plates; also called Mpl (Mpl/TPO ELISA); not shown: Ig part, captured by rabbit anti-human IgG Fc
T2 sequence (looked up): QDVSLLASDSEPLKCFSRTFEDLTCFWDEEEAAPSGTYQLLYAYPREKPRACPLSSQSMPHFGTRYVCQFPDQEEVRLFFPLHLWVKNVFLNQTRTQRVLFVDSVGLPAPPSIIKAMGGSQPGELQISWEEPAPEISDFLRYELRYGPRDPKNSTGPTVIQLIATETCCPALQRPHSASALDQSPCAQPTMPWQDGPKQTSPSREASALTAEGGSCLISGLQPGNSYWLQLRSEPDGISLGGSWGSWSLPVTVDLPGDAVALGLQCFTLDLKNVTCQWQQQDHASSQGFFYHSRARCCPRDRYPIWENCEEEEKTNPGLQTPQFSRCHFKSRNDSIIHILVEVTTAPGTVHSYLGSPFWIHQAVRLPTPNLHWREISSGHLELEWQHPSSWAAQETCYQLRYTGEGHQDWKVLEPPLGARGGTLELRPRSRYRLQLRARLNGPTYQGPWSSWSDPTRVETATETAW

[2] = target: T1, c-mpl (thrombopoietin receptor) on …; assay: Platelets: competition with 125I-TPO (100 pM) on human platelets
Experimental: as §1

[3] = target: c-mpl (thrombopoietin receptor) on HU-03 cells, human platelets or human cord blood cells (human) (UniProt P40238); assay: cell-based or functional assay
[4] = target: mpl-Rse.gD chimeric receptor (human) (UniProt P40238); assay: cell-based or functional assay
[5] = target: c-mpl (thrombopoietin receptor) on HU-03 cells, human platelets or human cord blood cells (human) (UniProt P40238); assay: Hu3 Binding: competition with 125I-TPO (100 pM) on HU-03 cells
[6] = target: c-mpl (thrombopoietin receptor) on HU-03 cells, human platelets or human cord blood cells (human) (UniProt P40238); assay: Platelets: competition with 125I-TPO (100 pM) on human platelets

IC50 [1]: 500 nM
IC50 (mpl-Ig): 180 nM
B1: 12E10 Fab (Fab, V domains shown)
VH: QVQLQQSGPGLVKPSETLSLTCTVSGDSISSYYWSWIRQPPGKGLEWIGYIYYSGSTNYNPSLKSRVTISVDTSKSQFSLKLSSVTAADTAVYYCARGRYFDVWGRGTMVTVSS
VL: SYVLTQPPSVSGSPGQSITISCTGTSSDVGGYNYVSWYQQHPGKAPKLMIYEGSKRPSGVSNRFSGSKSGNTASLTISGLQAEDEADYYCSSYTTRSTRVFGGGTKLTVL
notes: Monovalent Fab′ from E. coli: human IgG1 CH1 ending thr-ala-ala-pro, human kappa1 CL (pXCA730) or human lambda CL (pXCA970)

IC50 [1]: 50 nM
IC50 [2]: 500 nM
IC50 (mpl-Ig): 0.45 nM
B2: 12E10 IgG (antibody, V domains shown)
VH: B1 VH
VL: B1 VL
notes: Full length antibody with human IgG1 CH1, CH2 and CH3 domains, expressed in 293 or CHO cells; also called full length human antibody derivative of 12E10

IC50 [1]: 10 nM
IC50 [2]: 500 nM
IC50 (mpl-Ig): 640 nM
B3: 12E10 Fab′2 (other)
VH: B1 VH
VL: B1 VL
notes: F(ab′)2 with leucine zipper, expressed in E. coli from pXCA740; copies: 2 + 2

Hu3 Proliferation (ED50) [3]: 0.03 nM
KIRA (ED50) [4]: 0.4 nM
IC50 [5]: 10 nM
IC50 [6]: 300 nM
IC50 (mpl-Ig): 0.152 nM
B4: 12B5 IgG (antibody, from another filing)
scFv: QVQLVQSGGGLVRPGGSLSLSCAVSGITLRTYGMHWVRQAPGKGLEWVAGISFDGRSEYYADSVQGRFTISRDSSKNTLYLQMNSLRAEDTAVYYCARGAHYGFDIWGQGTMVTVSSGGGGTGGGGSGGGGSDIQMTQSPSTLSASIGDRVTITCRASEGIYHWLAWYQQKPGKAPKLLIYKASSLASGAPSRFSGSGSGTDFTLTISSLQPDDFATYYCQQYSNYPLTFGGGTKLEIK
